Data taken from patent US20190194276A1 (MAYO FOUNDATION FOR MEDICAL EDUCATION AND RESEARCH, published 2019).
Blank lines part the entries; values can stand above or below the binder they belong to. Ends that are not written are not given here.

Tests used:
endogenous IQGAP1 [1] = molecular target: T1, endogenous IQGAP1 (human, UniProt P46940 2-1657); assay: co-IP with anti-Flag from LNCaP cells expressing SFB-tagged peptides, Western blot
T1 construct: also called cellular IQGAP1

endogenous IQGAP1 [2] = molecular target: T1, endogenous IQGAP1; assay: co-IP with anti-IQGAP1 from LNCaP cells transfected with HA-FOXO4, Western blot
endogenous IQGAP1 [3] = molecular target: T1, endogenous IQGAP1; assay: GST pull-down from DU145 whole cell lysate, Western blot
endogenous IQGAP1 [4] = molecular target: T1, endogenous IQGAP1; assay: co-IP with anti-Flag from transfected LNCaP cells, Western blot
endogenous IQGAP1 [5] = molecular target: T1, endogenous IQGAP1; assay: co-IP with anti-IQGAP1 from LNCaP cells transfected with HA-FOXO3, Western blot

T1 sequence (P46940 2-1657 limits assumed): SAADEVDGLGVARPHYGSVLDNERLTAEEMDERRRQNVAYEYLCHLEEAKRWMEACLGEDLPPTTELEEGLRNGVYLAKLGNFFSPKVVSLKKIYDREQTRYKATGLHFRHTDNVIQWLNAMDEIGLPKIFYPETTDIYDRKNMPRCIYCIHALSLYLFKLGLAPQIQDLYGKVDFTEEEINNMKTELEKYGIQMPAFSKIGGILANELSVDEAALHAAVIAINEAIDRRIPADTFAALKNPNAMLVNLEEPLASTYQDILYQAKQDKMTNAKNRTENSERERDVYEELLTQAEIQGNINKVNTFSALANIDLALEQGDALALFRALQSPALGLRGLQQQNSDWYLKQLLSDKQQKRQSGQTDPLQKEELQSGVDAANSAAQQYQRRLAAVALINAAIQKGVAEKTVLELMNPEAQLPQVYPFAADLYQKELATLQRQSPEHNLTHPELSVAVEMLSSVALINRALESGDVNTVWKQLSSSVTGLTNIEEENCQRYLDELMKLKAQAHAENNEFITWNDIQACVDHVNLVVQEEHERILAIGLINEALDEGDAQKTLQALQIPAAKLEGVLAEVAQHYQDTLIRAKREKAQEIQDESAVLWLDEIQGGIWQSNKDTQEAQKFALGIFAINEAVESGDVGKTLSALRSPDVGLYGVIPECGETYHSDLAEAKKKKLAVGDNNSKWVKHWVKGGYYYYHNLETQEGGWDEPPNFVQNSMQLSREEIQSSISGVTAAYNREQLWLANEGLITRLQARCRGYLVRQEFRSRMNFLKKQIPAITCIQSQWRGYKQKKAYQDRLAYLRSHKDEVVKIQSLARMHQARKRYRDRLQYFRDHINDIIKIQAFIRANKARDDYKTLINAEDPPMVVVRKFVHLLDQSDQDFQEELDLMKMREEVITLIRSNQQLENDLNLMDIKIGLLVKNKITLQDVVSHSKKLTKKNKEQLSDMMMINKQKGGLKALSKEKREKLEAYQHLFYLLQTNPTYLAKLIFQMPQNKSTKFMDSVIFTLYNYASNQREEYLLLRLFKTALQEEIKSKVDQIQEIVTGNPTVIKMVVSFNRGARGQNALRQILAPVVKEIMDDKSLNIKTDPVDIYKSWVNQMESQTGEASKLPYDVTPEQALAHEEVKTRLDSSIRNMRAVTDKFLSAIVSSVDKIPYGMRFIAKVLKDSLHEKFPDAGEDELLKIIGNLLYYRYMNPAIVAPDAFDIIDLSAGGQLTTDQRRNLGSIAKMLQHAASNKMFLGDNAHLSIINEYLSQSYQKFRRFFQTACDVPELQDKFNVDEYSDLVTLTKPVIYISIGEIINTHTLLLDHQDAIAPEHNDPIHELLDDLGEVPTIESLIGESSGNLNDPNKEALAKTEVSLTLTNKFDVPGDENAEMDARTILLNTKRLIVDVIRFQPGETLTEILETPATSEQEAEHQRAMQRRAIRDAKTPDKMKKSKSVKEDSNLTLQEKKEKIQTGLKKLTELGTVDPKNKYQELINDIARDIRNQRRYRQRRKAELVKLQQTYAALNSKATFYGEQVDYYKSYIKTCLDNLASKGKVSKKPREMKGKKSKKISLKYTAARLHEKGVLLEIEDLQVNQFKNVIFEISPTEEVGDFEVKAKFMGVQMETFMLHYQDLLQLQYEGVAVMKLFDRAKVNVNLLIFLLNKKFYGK

binding result (endogenous IQGAP1 [1]): binds
B1: SFB-FOXO1-IQBP S319 (peptide, not shown: small tags and cut ends)
peptide: NDDFDNWSTFRPRTSSNASTISGRLSPIMT
modifications: also: SFB tag, position not given here
notes: Expressed in LNCaP cells; also called wild-type counterpart

binding result (endogenous IQGAP1 [1]): binds
Binder: NDDFDNWSTFRPRTSDNASTISGRLSPIMT (peptide, not shown: small tags and cut ends, also: SFB tag, position not given here, Expressed in LNCaP cells) [SFB-FOXO1-IQBP S319D]

binding result (endogenous IQGAP1 [1]): binds
B2: SFB-FOXO1-IQBP S319E (peptide, not shown: small tags and cut ends)
peptide: NDDFDNWSTFRPRTSENASTISGRLSPIMT
modifications: also: SFB tag, position not given here
notes: Expressed in LNCaP cells; also called Flag-tagged FOXO1 IQBP(SE)

binding result (endogenous IQGAP1 [2]): binds
B3: HA-FOXO4 (other, UniProt P98177 1-505, looked up)
chain: MDPGNENSATEAAAIIDLDPDFEPQSRPRSCTWPLPRPEIANQPSEPPEVEPDLGEKVHTEGRSEPILLPSRLPEPAGGPQPGILGAVTGPRKGGSRRNAWGNQSYAELISQAIESAPEKRLTLAQIYEWMVRTVPYFKDKGDSNSSAGWKNSIRHNLSLHSKFIKVHNEATGKSSWWMLNPEGGKSGKAPRRRAASMDSSSKLLRGRSKAPKKKPSVLPAPPEGATPTSPVGHFAKWSGSPCSRNREEADMWTTFRPRSSSNASSVSTRLSPLRPESEVLAEEIPASVSSYAGGVPPTLNEGLELLDGLNLTSSHSLLSRSGLSGFSLQHPGVTGPLHTYSSSLFSPAEGPLSAGEGCFSSSQALEALLTSDTPPPPADVLMTQVDPILSQAPTLLLLGGLPSSSKLATGVGLCPKPLEAPGPSSLVPTLSMIAPPPVMASAPIPKALGTPVLTPPTEAASQDRMPQDLDLDMYMENLECDMDNIISDLMDEGEGLDFNFEPDP
notes: Expressed in LNCaP cells; not shown: HA tag

binding result (endogenous IQGAP1 [3]): no binding
B4: GST-FOXO1-2 (amino acids 149-267) (other, human, UniProt Q12778 149-267, looked up, not shown: a dimerising Fc or GST)
chain: PRKSSSSRRNAWGNLSYADLITKAIESSAEKRLTLSQIYEWMVKSVPYFKDKGDSNSSAGWKNSIRHNLSLHSKFIRVQNEGTGKSSWWMLNPEGGKSGKSPRRRAASMDNNSKFAKSR
notes: range 149-267

binding result (endogenous IQGAP1 [4]): no binding
B5: Flag-FOXO1-A3 (T24A/S256A/S319A) (other, human, UniProt Q12778 1-655, looked up)
chain: MAEAPQVVEIDPDFEPLPRPRSCAWPLPRPEFSQSNSATSSPAPSGSAAANPDAAAGLPSASAAAVSADFMSNLSLLEESEDFPQAPGSVAAAVAAAAAAAATGGLCGDFQGPEAGCLHPAPPQPPPPGPLSQHPPVPPAAAGPLAGQPRKSSSSRRNAWGNLSYADLITKAIESSAEKRLTLSQIYEWMVKSVPYFKDKGDSNSSAGWKNSIRHNLSLHSKFIRVQNEGTGKSSWWMLNPEGGKSGKSPRRRAAAMDNNSKFAKSRSRAAKKKASLQSGQEGAGDSPGSQFSKWPASPGSHSNDDFDNWSTFRPRTSANASTISGRLSPIMTEQDDLGEGDVHSMVYPPSAAKMASTLPSLSEISNPENMENLLDNLNLLSSPTSLTVSTQSSPGTMMQQTPCYSFAPPNTSLNSPSPNYQKYTYGQSSMSPLPQMPIQTLQDNKSSYGGMSQYNCAPGLLKELLTSDSPPHNDIMTPVDPGVAQPNSRVLGQNVMMGPNSVMSTYGSQASHNKMMNPSSHTHPGHAQQTSAVNGRPLPHTVSTMPHTSGMNRLTQVKTPVQVPLPHPMQMSALGGYSSVSSCNGYGRMGLLHQEKLPSDLDGMFIERLDCDMESIIRNDLMDGDTLDFNFDNVLPNQSFPHSVKTTTHSWVSG
notes: Expressed in LNCaP cells; also called triple mutant; not shown: Flag tag

binding result (endogenous IQGAP1 [4]): binds
B6: Flag-FOXO1-T24A (other, human, UniProt Q12778 1-655, looked up)
chain: MAEAPQVVEIDPDFEPLPRPRSCAWPLPRPEFSQSNSATSSPAPSGSAAANPDAAAGLPSASAAAVSADFMSNLSLLEESEDFPQAPGSVAAAVAAAAAAAATGGLCGDFQGPEAGCLHPAPPQPPPPGPLSQHPPVPPAAAGPLAGQPRKSSSSRRNAWGNLSYADLITKAIESSAEKRLTLSQIYEWMVKSVPYFKDKGDSNSSAGWKNSIRHNLSLHSKFIRVQNEGTGKSSWWMLNPEGGKSGKSPRRRAASMDNNSKFAKSRSRAAKKKASLQSGQEGAGDSPGSQFSKWPASPGSHSNDDFDNWSTFRPRTSSNASTISGRLSPIMTEQDDLGEGDVHSMVYPPSAAKMASTLPSLSEISNPENMENLLDNLNLLSSPTSLTVSTQSSPGTMMQQTPCYSFAPPNTSLNSPSPNYQKYTYGQSSMSPLPQMPIQTLQDNKSSYGGMSQYNCAPGLLKELLTSDSPPHNDIMTPVDPGVAQPNSRVLGQNVMMGPNSVMSTYGSQASHNKMMNPSSHTHPGHAQQTSAVNGRPLPHTVSTMPHTSGMNRLTQVKTPVQVPLPHPMQMSALGGYSSVSSCNGYGRMGLLHQEKLPSDLDGMFIERLDCDMESIIRNDLMDGDTLDFNFDNVLPNQSFPHSVKTTTHSWVSG
notes: Expressed in LNCaP cells; not shown: Flag tag

binding result (endogenous IQGAP1 [4]): binds
B7: Flag-FOXO1-S256A (other, human, UniProt Q12778 1-655, looked up)
chain: MAEAPQVVEIDPDFEPLPRPRSCTWPLPRPEFSQSNSATSSPAPSGSAAANPDAAAGLPSASAAAVSADFMSNLSLLEESEDFPQAPGSVAAAVAAAAAAAATGGLCGDFQGPEAGCLHPAPPQPPPPGPLSQHPPVPPAAAGPLAGQPRKSSSSRRNAWGNLSYADLITKAIESSAEKRLTLSQIYEWMVKSVPYFKDKGDSNSSAGWKNSIRHNLSLHSKFIRVQNEGTGKSSWWMLNPEGGKSGKSPRRRAAAMDNNSKFAKSRSRAAKKKASLQSGQEGAGDSPGSQFSKWPASPGSHSNDDFDNWSTFRPRTSSNASTISGRLSPIMTEQDDLGEGDVHSMVYPPSAAKMASTLPSLSEISNPENMENLLDNLNLLSSPTSLTVSTQSSPGTMMQQTPCYSFAPPNTSLNSPSPNYQKYTYGQSSMSPLPQMPIQTLQDNKSSYGGMSQYNCAPGLLKELLTSDSPPHNDIMTPVDPGVAQPNSRVLGQNVMMGPNSVMSTYGSQASHNKMMNPSSHTHPGHAQQTSAVNGRPLPHTVSTMPHTSGMNRLTQVKTPVQVPLPHPMQMSALGGYSSVSSCNGYGRMGLLHQEKLPSDLDGMFIERLDCDMESIIRNDLMDGDTLDFNFDNVLPNQSFPHSVKTTTHSWVSG
notes: as for B6

binding result (endogenous IQGAP1 [4]): no binding
B8: Flag-FOXO1-S319A (other, human, UniProt Q12778 1-655, looked up)
chain: MAEAPQVVEIDPDFEPLPRPRSCTWPLPRPEFSQSNSATSSPAPSGSAAANPDAAAGLPSASAAAVSADFMSNLSLLEESEDFPQAPGSVAAAVAAAAAAAATGGLCGDFQGPEAGCLHPAPPQPPPPGPLSQHPPVPPAAAGPLAGQPRKSSSSRRNAWGNLSYADLITKAIESSAEKRLTLSQIYEWMVKSVPYFKDKGDSNSSAGWKNSIRHNLSLHSKFIRVQNEGTGKSSWWMLNPEGGKSGKSPRRRAASMDNNSKFAKSRSRAAKKKASLQSGQEGAGDSPGSQFSKWPASPGSHSNDDFDNWSTFRPRTSANASTISGRLSPIMTEQDDLGEGDVHSMVYPPSAAKMASTLPSLSEISNPENMENLLDNLNLLSSPTSLTVSTQSSPGTMMQQTPCYSFAPPNTSLNSPSPNYQKYTYGQSSMSPLPQMPIQTLQDNKSSYGGMSQYNCAPGLLKELLTSDSPPHNDIMTPVDPGVAQPNSRVLGQNVMMGPNSVMSTYGSQASHNKMMNPSSHTHPGHAQQTSAVNGRPLPHTVSTMPHTSGMNRLTQVKTPVQVPLPHPMQMSALGGYSSVSSCNGYGRMGLLHQEKLPSDLDGMFIERLDCDMESIIRNDLMDGDTLDFNFDNVLPNQSFPHSVKTTTHSWVSG
notes: as for B6

binding result (endogenous IQGAP1 [4]): binds
B9: Flag-FOXO1-537 (other, human, UniProt Q12778 1-537, looked up)
chain: MAEAPQVVEIDPDFEPLPRPRSCTWPLPRPEFSQSNSATSSPAPSGSAAANPDAAAGLPSASAAAVSADFMSNLSLLEESEDFPQAPGSVAAAVAAAAAAAATGGLCGDFQGPEAGCLHPAPPQPPPPGPLSQHPPVPPAAAGPLAGQPRKSSSSRRNAWGNLSYADLITKAIESSAEKRLTLSQIYEWMVKSVPYFKDKGDSNSSAGWKNSIRRNLSLHSKFIRVQNEGTGKSSWWMLNPEGGKSGKSPRRRAASMDNNSKFAKSRSRAAKKKASLQSGQEGAGDSPGSQFSKWPASPGSHSNDDFDNWSTFRPRTSSNASTISGRLSPIMTEQDDLGEGDVHSMVYPPSAAKMASTLPSLSEISNPENMENLLDNLNLLSSPTSLTVSTQSSPGTMMQQTPCYSFAPPNTSLNSPSPNYQKYTYGQSSMSPLPQMPIQTLQDNKSSYGGMSQYNCAPGLLKELLTSDSPPHNDIMTPVDPGVAQPNSRVLGQNVMMGPNSVMSTYGSQASHNKMMNPSSHTHPGHAQQTSAVNGR
notes: Transcription-deficient mutant that can be phosphorylated by AKT; not shown: Flag tag

binding result (endogenous IQGAP1 [3]): no binding
B10: GST-FOXO1-1 (amino acids 1-167) (other, human, UniProt Q12778 1-167, looked up, not shown: a dimerising Fc or GST)
chain: MAEAPQVVEIDPDFEPLPRPRSCTWPLPRPEFSQSNSATSSPAPSGSAAANPDAAAGLPSASAAAVSADFMSNLSLLEESEDFPQAPGSVAAAVAAAAAAAATGGLCGDFQGPEAGCLHPAPPQPPPPGPLSQHPPVPPAAAGPLAGQPRKSSSSRRNAWGNLSYAD
notes: range 1-167

binding result (endogenous IQGAP1 [5]): binds
B11: HA-FOXO3 (other, UniProt O43524 1-673, looked up)
chain: MAEAPASPAPLSPLEVELDPEFEPQSRPRSCTWPLQRPELQASPAKPSGETAADSMIPEEEDDEDDEDGGGRAGSAMAIGGGGGSGTLGSGLLLEDSARVLAPGGQDPGSGPATAAGGLSGGTQALLQPQQPLPPPQPGAAGGSGQPRKCSSRRNAWGNLSYADLITRAIESSPDKRLTLSQIYEWMVRCVPYFKDKGDSNSSAGWKNSIRHNLSLHSRFMRVQNEGTGKSSWWIINPDGGKSGKAPRRRAVSMDNSNKYTKSRGRAAKKKAALQTAPESADDSPSQLSKWPGSPTSRSSDELDAWTDFRSRTNSNASTVSGRLSPIMASTELDEVQDDDAPLSPMLYSSSASLSPSVSKPCTVELPRLTDMAGTMNLNDGLTENLMDDLLDNITLPPSQPSPTGGLMQRSSSFPYTTKGSGLGSPTSSFNSTVFGPSSLNSLRQSPMQTIQENKPATFSSMSHYGNQTLQDLLTSDSLSHSDVMMTQSDPLMSQASTAVSAQNSRRNVMLRNDPMMSFAAQPNQGSLVNQNLLHHQHQTQGALGGSRALSNSVSNMGLSESSSLGSAKHQQQSPVSQSMQTLSDSLSGSSLYSTSANLPVMGHEKFPSDLDLDMFNGSLECDMESIIRSELMDADGLDFNFDSLISTQNVVGLNVGNFTGAKQASSQSWVPG
notes: as for B3

binding result (endogenous IQGAP1 [3]): no binding
B12: GST-FOXO1-5 (amino acids 488-655) (other, human, UniProt Q12778 488-655, looked up, not shown: a dimerising Fc or GST)
chain: NSRVLGQNVMMGPNSVMSTYGSQASHNKMMNPSSHTHPGHAQQTSAVNGRPLPHTVSTMPHTSGMNRLTQVKTPVQVPLPHPMQMSALGGYSSVSSCNGYGRMGLLHQEKLPSDLDGMFIERLDCDMESIIRNDLMDGDTLDFNFDNVLPNQSFPHSVKTTTHSWVSG
notes: range 488-655

binding result (endogenous IQGAP1 [3]): no binding
B13: GST-FOXO1-4 (amino acids 354-503) (other, human, UniProt Q12778 354-503, looked up, not shown: a dimerising Fc or GST)
chain: KMASTLPSLSEISNPENMENLLDNLNLLSSPTSLTVSTQSSPGTMMQQTPCYSFAPPNTSLNSPSPNYQKYTYGQSSMSPLPQMPIQTLQDNKSSYGGMSQYNCAPGLLKELLTSDSPPHNDIMTPVDPGVAQPNSRVLGQNVMMGPNSV
notes: range 354-503
